Data on 1 protein can be found in paper PMC7042059 (FEBS letters, 2019).

The stoichiometry N is a count of units in the complex or per binding partner.

“And” between values parts separate entries of the source, which are not always exact repeats. Equal values may be shown once.

The data set deals with the molecule itself. The experiment in a line: SEC. (In general: Size exclusion chromatography separates by hydrodynamic size, large species first.)

B1: PKM2 R399E (enzyme)
chain: not shown
Turning to B1, the “stoichiometry N” value is 4 and 2.
